Data on one molecule can be found in patent US10801027B2, “Inhibitors of SRSF1 to treat neurodegenerative disorders” (University of Sheffield, priority 2016, dated 2020).

Test [1] concerns poly-Gly-Pro and poly-Gly-Ala DPRs. As to the kind of experiment: Western blot of RAN-translated DPRs in N2A cells. The class given is cell-based, mouse. As to conditions: G4C2×38 or C4G2×39 constructs, 72 h. The method, then:
Neuro-2a (ATCC) cells were cultured in Dulbecco's Modified Eagle Medium (Sigma) supplemented with 10% fetal bovine serum [FBS] (Gibco), 5 U/ml Penstrep (Lonza) and 5 mM sodium pyruvate. Cells were maintained in a […] incubator with 5% CO2. 75,000 Neuro-2a cells were split into each well of 24-well plates and transfected for 72 h with 500 ng pcDNA6.2-GW/EmGFP-Control miR RNAi (ThermoFisher) or pcDNA6.2-GW/EmGFP-mouse SRSF1 miR1+2 RNAi and 200 ng pcDNA 3.1/RAN-G4C2×38-sense or RAN-C4G2×39-antisense using 3 μg PEI/1 μg DNA and one tenth medium volume OptiMEM (ThermoFisher).
HEK cells were transfected for 72 h with 650 ng pcDNA6.2-GW/EmGFP-Control miRNA, pCDNA6.2-GW/EmGFP-human SRSF1 miR1+2 RNAi or LV-EmGFP-human SRSF1 miR1+2 RNAi constructs and 50 ng p3×FLAG/human-SRSF1 using 3.5 μg PEI/ml media and one tenth medium volume of OptiMEM. Neuro-2a cells were split into each well of 24-well plates (75,000 cells/well) and transfected for 72 h with 350 ng pcDNA6.2-GW/EmGFP-Control miR RNAi (ThermoFisher), pcDNA6.2-GW/EmGFP-mouse SRSF1 miR1+2 RNAi, p3×FLAG, p3×FLAG/SRSF1 (11-196), p3×FLAG/SRSF1 (11-196)-m2 or p3×FLAG/SRSF1 (11-196)-m4 and 350 ng pcDNA 3.1/RAN-G4C2×38-sense or RAN-C4G2×39-antisense using 3 μg PEI/1 μg DNA and one tenth medium volume OptiMEM.
Proteins were extracted from HEK or Neuro-2a cells 72 hours after transfection. […] Protein extracts were quantified using Bradford Reagent (BioRAD), resolved by SDS-PAGE, electroblotted onto nitrocellulose membrane and probed using the relevant primary antibody. […] (kindly received from Prof Stuart Pickering Brown) primary antibodies were detected with horseradish peroxidase (HRP)-conjugated rabbit secondary antibody [1:5000 dilution] […] (kindly provided from Prof Dieter Edbauer) primary antibodies were detected using HRP-conjugated mouse secondary antibody [1:5000 dilution] […] For dot blot analysis, 50 μg total protein extracts prepared in ice-cold lysis buffer were loaded onto a nitrocellulose membrane using a microfiltration apparatus (Biorad) and analysed by western immunoblotting as previously described.

The subject of the next test is G4C2×38 transcripts. As to the kind of experiment: Cytoplasmic fractionation and qRT-PCR of G4C2×38 transcripts in N2A cells. The class given is cell-based, mouse. The method, then: Neuro-2a cells were split into each well of 6 well plates (2×10^6 cells/well) and transfected for 72 hours with 1 μg pcDNA6.2-GW/EmGFP-Control miR RNAi, pcDNA6.2-GW/EmGFP-mouse SRSF1 miR1+2 RNAi, p3×FLAG/SRSF1 (11-196), or p3×FLAG/SRSF1 (11-196)-m4 and 1 μg pcDNA 3.1/RAN-G4C2×38-sense or RAN-C4G2×39-antisense using 3 μg PEI/1 μg DNA and one tenth medium volume OptiMEM. iNeurons were cultured in 6-well plates and transduced with 5MOI human LV-SRSF1-RNAi lentivirus for 5 days.
Cytoplasmic fractionation was performed as follows. Cells were removed from the plate using DEPC PBS and pelleted by centrifugation at 800×g for 5 minutes. Cell pellets were quickly washed with hypotonic lysis buffer (10 mM HEPES pH 7.9, 1.5 mM MgCl2, 10 mM KCl, 0.5 mM DTT). Cell pellets were then lysed in hypotonic lysis buffer containing 0.16 U/μL Ribosafe RNase inhibitors (Bioline), 2 mM PMSF (Sigma) and […]™ Protease Inhibitor Cocktail tablets, EDTA free (Sigma) according to manufacturer's instructions. Cells were lysed gently using a cut P1000 tip ensuring no physical force was exerted on the cell pellet. For fly tissue, da-GAL4 was used to drive transgene expression in all tissues, and 10 third instar larvae were homogenised and lysed using the same buffer and a dounce homogenizer. The lysate then underwent differential centrifugation (1,500 g, 3 min, 4° C. then 3,500 g […], 8 min, 4° C. and then 17,000 g, 1 min, 4° C.) transferring the supernatant to a fresh tube after each centrifugation. The supernatant was then added to PureZOL (Biorad) to extract RNA. […]
Following RNA quantification, 2 μg RNA was converted to cDNA using BioScript™ Reverse Transcriptase (Bioline). qRT-PCR primers were designed using Primer-BLAST (NCBI) and validated using a 1 in 4 serial template dilution series (standard curve with R^2>0.97). qRT-PCR reactions were performed in duplicate for 3 independent biological repeats using the Brilliant III Ultra-Fast SYBR® Green QPCR Master Mix (Agilent Technologies) on a MX3000P QPCR system (Statagene). qRT-PCR data was analysed using MxPro (Stratagene) and GraphPad Prism (Version 6). […]

B1: SRSF1-m4: quadruple SRSF1 point mutant aa11-196, dominant negative, does not interact with TAP/NXF1 (protein)
chain: AGNNDCRIYVGNLPPDIRTKDIEDVFYKYGAIRDIDLKNRRGGPPFAFVEFEDPRDAEDAVYGRDGYDYDGYRLRVEFPASGAGTGRGGGGGGGGGAPRGRYGPPSAASENRVVVSGLPPSGSWQDLKDHMREAGDVCYADVYRDGTGVVEFVRKEDMTYAVRKLDNTKFRSHEGETAYIRVKVDG
modifications: left off: small tags and cut ends
As to B1, the “effect on RAN translation / production of sense and antisense DPRs” value in test [1] is on record as “marked reduction”. The “cytoplasmic repeat transcript levels normalized to total levels” value with G4C2×38 transcripts (G4C2×38, RNAi vs Ctrl-RNAi, SRSF1-m4 vs SRSF1) was “marked reduction”. For the same molecule, in the test with G4C2×38 transcripts (normalized to U1 snRNA), the “cytoplasmic levels of G4C2×38 transcripts” value is on record as “markedly reduced” and the “total levels of G4C2×38 transcripts” value is listed as “not significantly altered”.
